Laboratory results from PMC9548408.

How the values were obtained:
[1] = target: human lysosomal α-L-fucosidase (FucA1) (human) (UniProt P04066); assay: SEC-MALS; SEC-MALLS, Superdex S200 10/300, 20 mM HEPES pH 7.4, 200 mM NaCl, room temperature (20 ± 2°C), 100 μL injected at 0.8 mg/mL
[2] = target: human lysosomal α-L-fucosidase (FucA1) (human) (UniProt P04066); assay: cryo-EM structure; single-particle cryo-EM, 200 kV Glacios, D2 symmetry imposed; unliganded FucA1 at 2 mg/mL, and FucA1 at 1.5 mg/mL with 1 mM deoxyfuconojirimycin in 60 mM phosphate citrate pH 4.5

Substance: human lysosomal α-L-fucosidase (FucA1) (from UniProt P04066 32-466) (enzyme)
- stoichiometry N [1]: 4
- stoichiometry N [2]: 4
